From PMC5036782 (Biophysics, 2011)

What was measured:
Assay in all cases: NMR titration; 1H-13C HSQC of selectively [13C]-methyl-Met labelled CaM or variant, Ca2+-bound form compared with the complex with skMLCKp; 20 mM phosphate, 100 mM KCl, 10 mM CaCl2, pH 7.0, 25°C, about 0.6 mM protein, 800 MHz
Details in all cases: both partners purified
[1] = target: intact chicken calmodulin (CCM0) (chicken, UniProt P62149 1-149)
[2] = target: CCMΔ4, chicken calmodulin lacking the last four residues (M145 to K148) (chicken, UniProt P62149 1-145)
[3] = target: CCMΔ5, chicken calmodulin lacking the last five residues (M144 to K148) (chicken, UniProt P62149 1-144)

binding result [1]: binds | binding result [2]: binds | binding result [3]: binds
Binder: KRRWKKNFIAVSAANRFKKISSSGAL
